This test concerns the target Adenovirus 5 receptor (cell surface fiber receptor on HeLa cells). As to the kind of experiment: cell-based or functional assay.

Take “Adenovirus 5 fiber protein (from UniProt P11818 1-581) (ligand)”: the percentage of adenoviral transduction of HeLa cells by Av1LacZ4 (β-galactosidase positive cells) after preincubation with competitor fiber was 0.1 to 1 pg/mL.

These data come from patent US20040175364A1.
